Reference: patent US20250163130A1, “LIGAND GATED ION CHANNELS AND METHODS OF USE” (Trames Bio, Inc., priority 2022, published 2025)
Positions count from the first letter of the chain named. Names and notes keep the numbering of the source.

How the values were obtained:
Format in all cases: cell-based
CODA1237 = molecular target: T1, CODA1237 (Homo sapiens, UniProt P36544, F159M/H163T/I152M/R155K/V154L/W156N/Y151P); assay: Anion reporter (YFP quench) plate assay, ligand response of cells expressing CODA1237 compared with CODA71; settings: FIG. 1, various ligand doses
T1 construct: expressed in transfected cells; host or cells: Lenti-X 293T (LX293T, Clontech) stably expressing mutant YFP (H148Q/I152L) reporter
T1 sequence (P36544 with tags, fused parts or gaps Y151P/I152M/V154L/R155K/W156N/F159M/H163T): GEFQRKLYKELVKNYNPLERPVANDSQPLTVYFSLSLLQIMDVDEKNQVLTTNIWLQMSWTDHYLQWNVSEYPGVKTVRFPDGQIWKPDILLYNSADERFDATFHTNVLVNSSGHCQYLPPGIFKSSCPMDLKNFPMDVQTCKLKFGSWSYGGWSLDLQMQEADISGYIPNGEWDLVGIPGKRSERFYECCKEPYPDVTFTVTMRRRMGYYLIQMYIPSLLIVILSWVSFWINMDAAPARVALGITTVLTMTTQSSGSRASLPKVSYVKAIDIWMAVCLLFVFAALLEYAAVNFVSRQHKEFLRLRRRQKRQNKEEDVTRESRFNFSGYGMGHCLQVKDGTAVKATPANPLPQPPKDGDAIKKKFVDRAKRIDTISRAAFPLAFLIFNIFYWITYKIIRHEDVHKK

[1] = tested on: Lenti-X 293T cells expressing mutant YFP reporter; assay: Anion reporter (YFP quench) plate assay, responsiveness of engineered receptors to acetylcholine or TC-5619; settings: FIG. 3, increasing doses of acetylcholine
HEK293T cells = tested on: HEK293T cells

`c1ccc(-c2nnc(O[C@@H]3C4CC5C[C@H]3CN(C5)C4)s2)cc1` [ABT-126] was tested, and the “Responsiveness (percent quench of YFP fluorescence) of cells expressing CODA1237 compared with cells expressing CODA71” value (CODA1237) was “more responsive”.

In the case of `O=C(N[C@@H]1CN2CCC1CC2)c1n[nH]c2ccccc12` [RG3487], the “Responsiveness (percent quench of YFP fluorescence) of cells expressing CODA1237 compared with cells expressing CODA71” value (CODA1237) is reported as “more responsive”.

B1: CODA1344: α7-nAChR LBD: GlyRα3 isoform L IPD, SEQ ID NO: 63 (protein)
chain: MRCSPGGVWLALAASLLHVSLQGEFQRKLYKELVKNYNPLERPVANDSQPLTVYFSLSLLQIMDVDEKNQVLTTNIWLQMSWTDHYLQWNVSEYPGVKTVRFPDGQIWKPDILLYNSADERFDATFHTNVLVNSSGHCQYLPPGIFKSSCYIDVRWFPFDVQHCKLKFGSWSYGGWSLDLQMQEADISGYIPNGEWDLVGIPGKRSERFYECCKEPYPDVTFTVTMRRRMGYYLIQMYIPSLLIVILSWVSFWINMDAAPARVALGITTVLTMTTQSSGSRASLPKVSYVKAIDIWMAVCLLFVFSALLEYAAVNFVSRQHKELLRFRRKRKNKTEAFALEKFYRFSDMDDEVRESRFSFTAYGMGPCLQAKDGMTPKGPNHPVQVMPKSPDEMRKVFIDRAKKIDTISRACFPLAFLIFNIFYWVIYKILRHEDIHQQQD
modifications: CHRNA7/GLRA3 isoform L
B1 was tested, and the “Responsiveness to acetylcholine (percent quench of YFP) using CODA71 as the reference point” value [1] was “lower responsiveness”.

B2: CODA1343: α7-nAChR(Gly-cys) LBD: GlyRα3 isoform K IPD, SEQ ID NO: 71 (protein)
chain: MRCSPGGVWLALAASLLHVSLQGEFQRKLYKELVKNYNPLERPVANDSQPLTVYFSLSLLQIMDVDEKNQVLTTNIWLQMSWTDHYLQWNVSEYPGVKTVRFPDGQIWKPDILLYNSADERFDATFHTNVLVNSSGHCQYLPPGIFKSSCPMDLKNFPMDVQTCKLKFGSWSYGGWSLDLQMQEADISGYIPNGEWDLVGIPGKRSERFYECCKEPYPDVTFTVTMRRRMGYYLIQMYIPSLLIVILSWVSFWINMDAAPARVALGITTVLTMTTQSSGSRASLPKVSYVKAIDIWMAVCLLFVFSALLEYAAVNFVSRQHKELLRFRRKRKNKDDEVRESRFSFTAYGMGPCLQAKDGMTPKGPNHPVQVMPKSPDEMRKVFIDRAKKIDTISRACFPLAFLIFNIFYWVIYKILRHEDIHQQQD
modifications: CHRNA7_(Cys-loop)/GLRA3 isoform K
With B2 the “Responsiveness to acetylcholine (percent quench of YFP) using CODA71 as the reference point” value [1] was “higher responsiveness”, the “Percentage of surface expressing (α-bungarotoxin staining positive) cells” value (HEK293T cells) was “higher percentage of surface expressing cells” and the “Surface expression level (mean fluorescent intensity of α-bungarotoxin staining positive cells)” value (“Surface expression level” below) (HEK293T cells) was “higher surface expression”.

B3: CODA1298: α7-nAChR(Gly-cys) LBD: GlyRα2 IPD, SEQ ID NO: 65 comprising T225I mutation (protein)
chain: MRCSPGGVWLALAASLLHVSLQGEFQRKLYKELVKNYNPLERPVANDSQPLTVYFSLSLLQIMDVDEKNQVLTTNIWLQMSWTDHYLQWNVSEYPGVKTVRFPDGQIWKPDILLYNSADERFDATFHTNVLVNSSGHCQYLPPGIFKSSCPMDLKNFPMDVQTCKLKFGSWSYGGWSLDLQMQEADISGYIPNGEWDLVGIPGKRSERFYECCKEPYPDVTFTVIMRRRMGYYLIQMYIPSLLIVILSWVSFWINMDAAPARVALGITTVLTMTTQSSGSRASLPKVSYVKAIDIWMAVCLLFVFAALLEYAAVNFVSRQHKEFLRLRRRQKRQNKEEDVTRESRFNFSGYGMGHCLQVKDGTAVKATPANPLPQPPKDGDAIKKKFVDRAKRIDTISRAAFPLAFLIFNIFYWITYKIIRHEDVHKK
modifications: CHRNA7 (Cys-loop)/GLRA2
For B3, the “Surface expression level” value (HEK293T cells) was “improves the surface expression level”.

B4: CODA1345: α7-nAChR LBD: GlyRα3 isoform K IPD, SEQ ID NO: 70 (protein)
chain: B2 chain with P151Y, M152I, L154V, K155R, N156W, M159F, T163H
modifications: CHRNA7/GLRA3 isoform K
For B4, the “Percentage of surface expressing (α-bungarotoxin staining positive) cells” value (HEK293T cells) was “higher percentage of surface expressing cells” and the “Surface expression level” value (HEK293T cells) was “higher surface expression”.

B5: CODA1237: α7-nAChR(Gly-cys) LBD: GlyRα2 IPD, SEQ ID NO: 65 (protein)
chain: B3 chain with I225T
modifications: CHRNA7 (Cys-loop)/GLRA2
For B5, the “Surface expression level” value (HEK293T cells) was “higher surface expression”.
